Source: patent publication US20200325236A1 (REYOUNG SUZHOU BIOLOGY SCIENCE AND TECHNOLOGY, published 2020)

T1: human OX-40 protein (human, UniProt P43489 29-214, limits assumed)
T1 construct: Homologous family member used as the specificity control
T1 sequence (looked up): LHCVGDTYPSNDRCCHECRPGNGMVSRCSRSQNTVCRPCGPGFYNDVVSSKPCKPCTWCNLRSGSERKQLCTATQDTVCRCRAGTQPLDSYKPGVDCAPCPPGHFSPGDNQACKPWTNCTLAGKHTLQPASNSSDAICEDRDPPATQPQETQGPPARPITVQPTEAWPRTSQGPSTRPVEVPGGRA

B1: ab1 chimeric antibody (anti-human 4-1BB antibody ab1) (antibody, human IgG1, V domains shown)
VH: QVQLQQSGAELVRPGTSVKISCKASGYAFTNYWLGWVKQRPGHGLEWIGDIYPGNGNSYYNEKFKGRATLTADKSSSTVYMQLSSLTSEDSVVYFCTRSSSYYRDVMDYWGQGTSVTVSS
VL: DIQMTQSPASLSASVGETVTITCRASENIYSYLVWYQQKQGKSPQLLVYNAKTLAEGVSSRFSGSGSGTQFSLKINSLQPEDFGSYYCQHHYGTPLTFGAGTKLELKR
notes: also called anti-h4-1BB chimeric antibody; anti-h4-1BB monoclonal antibody
B2: Humanized 4-1BB antibody (antibody, V domains shown)
VH: QVQLVQSGAEVKKPGASVKVSCKASGYAFTNYWLGWVRQAPGHGLEWMGDIYPGNGNSYYAQKFQGRVTMTRDKSSSTVYMELSSLRSEDTAVYFCTRSSSYYRDVMDYWGQGTLVTVSS
VL: DIQLTQSPSFLSASVGDRVTITCRASENIYSYLVWYQQKPGKAPKLLIYNAKTLAEGVPSRFSGSGSGTEFTLTISSLQPEDFATYYCQHHYGTPLTFGAGTKLEIKR
notes: ab1 after humanization by template replacement with back mutations; also called humanized anti-human 4-1BB antibody; ab1 humanized antibody

What was measured:
[1] = biological target: T2, human 4-1BB-Fc fusion protein (human, UniProt Q07011 24-186); experiment: SPR, Biacore T200, h4-1BB-Fc amine-coupled to chip, antibody 0.3125-5.0 ug/mL as analyte
T2 construct: Antigen amine-coupled to the Biacore chip; also called h4-1BB-Fc fusion protein; h4-1BB; not shown: Fc part
Experimental: Affinity of the antibody: determining binding kinetics of the purified antibody which is prepared in the embodiment 2 and the h4-1BB by using BIAcore T200; coupling 1 mg/mL antigen (h4-1BB-Fc fusion protein) to the surface of a CMS chip by using an amino coupling method, binding at 30 μL/min for 300 s when the concentration of the antibody is within 0.3125-5.0 μg/mL and then dissociating for 300 s; and analyzing data recorded by the Biacore T200 by using Biacore T200 Evaluation Software, wherein analysis results are as shown in Table 1.

[2] = biological target: cynomolgus monkey 4-1BB protein (cynomolgus monkey); experiment: ELISA, cynomolgus monkey 4-1BB coated at 1 ug/mL, HRP goat-anti-human IgG detection
Experimental: (§1) The cross-reactive activity of the antibody with cynomolgus monkey 4-1BB molecules is determined by ELISA. The ELISA comprises steps of coating the human 4-1BB or cynomolgus monkey 4-1BB (1 μg/mL) with the ELISA plate, incubating overnight at 4 DEG C.; washing three times with PBST (0.1% Tween 20), blocking with 3% BSA for 1 h; washing three times, adding the purified anti-human 4-1BB antibody prepared in the embodiment 2 and incubating for 1 h; washing three times and adding horse radish peroxidase (HRP) labeled goat-anti-human IgG (1:2000 dilution) and incubating for 1 h; washing three times, then adding the substrate solution (TMB) and developing the color at room temperature in the dark; and finally, adding the stop solution (2N H₂SO₄) and reading the optical density (OD) value at 450 nm.

[3] = biological target: T3, human 4-1BB protein (human, UniProt Q07011 24-186, limits assumed); experiment: ELISA, human 4-1BB coated at 1 ug/mL, HRP goat-anti-human IgG detection
T3 construct: Coating protein in the ELISAs of Embodiments 4 and 5; also called h4-1BB
Experimental: as §1

[4] = biological target: T1, human OX-40 protein; experiment: ELISA, plate coated with human OX-40 protein (1 ug/mL), HRP goat anti-human IgG, OD 450 nm
[5] = biological target: T3, human 4-1BB protein; experiment: ELISA, plate coated with human 4-1BB protein (1 ug/mL), HRP goat anti-human IgG, OD 450 nm
[6] = biological target: T3, human 4-1BB protein; experiment: ELISA of binding activity before and after humanization; the coated antigen is not named there, taken as 4-1BB from the legend and axis

Binder | Kd [1] [nM] | koff [1] [s⁻¹] | kon [1] [M⁻¹ s⁻¹] | EC50 [2] [nM] | EC50 [3] [nM] | binding result [4] | EC50 (read off the curve) [5] [µg/mL] | EC50 (read off the curve) [6] [µg/mL]
B1 | 0.0934 | 1.37e-05 | 146000 | 2.67 | 0.67 | no binding | ~0.1 | ~0.09
B2 | – | – | – | – | – | – | – | ~0.05
